Experimental data: patent publication US20220119517A1

How the values were obtained:
[1] = biological target: human Claudin18.2 (CLDN18.2), full length, on cells (human); experiment: FACS on NUGC4 cells
[2] = biological target: human Claudin18.2 (CLDN18.2), full length, on cells (human); experiment: cell-based or functional assay
[3] = biological target: human Claudin18.1 (CLDN18.1), full length, on cells (human) (UniProt P56856); experiment: FACS on CHO-K1-CLDN18.1 cells

“human IgG1, kappa isotype control antibody” was tested, and the MFI (CLDN18.2) [1] was 93 MFI, the ADCC cytotoxicity by LDH method, PBMC effectors, Max (%) [2] was 52% and the in-vitro ADCC activity, Jurkat-CD16A/NF luciferase reporter, EC50 [2] was 13.5 nM. The in-vitro ADCC activity, Jurkat-CD16A/NF luciferase reporter, Top [2] was 6190 and the MFI (CLDN18.1) [3] was 219 MFI.
